Positions count from the first letter of the chain named. In names and notes the source's numbering stands.
B1: NKG2D×CEA bispecific antibody in M format, P1AE4972 (395 C50S, non-humanized) / huA5B7 (bispecific antibody, V domains shown)
VH 1: QEQLEQSGGGLVTPGGSLKLCCTASGFDFNTFWMTWVRQAPGKGLEWIGSIHGGSGSRDYASWVNGRFTLSRDIDQSTACLQVNSLTAADTAMYYCARPGYRSWSKTFDLWGQGTMVTVSS
VL 1: DIQMTQSPSSLSASVGDRVTITCRASQDISGALNWYQQKPGKAPNLLIYAASSLQSGVPSRFSGSGSGTDYTLTISSLQPEDFATYYCQQANSFPLTFGGGTKVEIK
VH 2: EVQLLESGGGLVQPGGSLRLSCAASGFTFTDYYMNWVRQAPGKGLEWLGFIGNKANAYTTEYSASVKGRFTISRDKSKNTLYLQMNSLRAEDTATYYCTRDRGLRFYFDYWGQGTTVTVSS
VL 2: EIVLTQSPATLSLSPGERATLSCRASSSVTYIHWYQQKPGQAPRSWIYATSNLASGIPARFSGSGSGTDFTLTISSLEPEDFAVYYCQHWSSKPPTFGQGTKLEIK
notes: also called non-humanized comparator
B2: NKG2D×CEA bispecific antibody in M format, P1AE4977 / huA5B7 (bispecific antibody, V domains shown)
VH 1: EVQLLESGGGLVQPGGSLRLSCAASGFDFNTFWMTWVRQAPGKGLEWVGSIHGGSGSRDYADSVKGRFTISRDIDQSTAYLQMNSLRAEDTAVYYCARPGYRSWSKTFDLWGQGTTVTVSS
VL 1: B1 VL 1
VH 2: B1 VH 2
VL 2: B1 VL 2
B3: NKG2D×CEA bispecific antibody in M format, P1AE4981 / huA5B7 (bispecific antibody, V domains shown)
VH 1: QEQLQESGPGLVKPSETLSLTCTVSGFDFNTFWMTWIRQPPGKGLEWIGSIHGGSGSRDYNPSLKSRVTISVDIDQNQFSLKLSSVTAADTAVYYCARPGYRSWSKTFDLWGQGTTVTVSS
VL 1: B1 VL 1
VH 2: B1 VH 2
VL 2: B1 VL 2
B4: NKG2D×CEA bispecific antibody in M format, P1AE4975 / huA5B7 (bispecific antibody, V domains shown)
VH 1: B2 VH 1 with I74N, D75S, Q76K, S77N
VL 1: B1 VL 1
VH 2: B1 VH 2
VL 2: B1 VL 2
B5: NKG2D×CEA bispecific antibody in M format, P1AE4979 / huA5B7 (bispecific antibody, V domains shown)
VH 1: B2 VH 1 with E1Q, V2E
VL 1: B1 VL 1
VH 2: B1 VH 2
VL 2: B1 VL 2
B6: NKG2D×CEA bispecific antibody in M format, P1AE4978 / huA5B7 (bispecific antibody, V domains shown)
VH 1: B2 VH 1 with L5V, R72A
VL 1: B1 VL 1
VH 2: B1 VH 2
VL 2: B1 VL 2
B7: NKG2D×CEA bispecific antibody in M format, P1AE4973 / huA5B7 (bispecific antibody, V domains shown)
VH 1: B2 VH 1 with I74N, D75S, Q76K, S77N, A79L
VL 1: B1 VL 1
VH 2: B1 VH 2
VL 2: B1 VL 2
B8: anti-NKG2D clone 13C6 Fab (Fab, V domains shown)
VH: EVQLVQSGAEVKKPGESLKISCKGSGYSFTSYWIGWVRQMPGKGLEWMGIIYPGDSDTRYSPSFQGQVTISADKSISTAYLQWSSLKASDTAMYYCARLYPVGVYFDYWGQGTLVTVSS
VL: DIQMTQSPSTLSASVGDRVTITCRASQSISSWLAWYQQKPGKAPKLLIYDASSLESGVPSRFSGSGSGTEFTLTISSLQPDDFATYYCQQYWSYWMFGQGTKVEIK
notes: Phage-display Fab purified from E. coli by IMAC (Flag-tagged)
B9: anti-NKG2D clone 5C5 Fab (Fab, V domains shown)
VH: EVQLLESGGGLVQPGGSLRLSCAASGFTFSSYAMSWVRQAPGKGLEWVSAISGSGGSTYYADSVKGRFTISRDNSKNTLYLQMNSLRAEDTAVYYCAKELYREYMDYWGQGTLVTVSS
VL: SSELTQDPAVSVALGQTVRITCQGDSLRSYYASWYQQKPGQAPVLVIYGKNNRPSGIPDRFSGSSSGNTASLTITGAQAEDEADYYCNSRDSFSIHQNVFGGGTKLTVL
notes: as for B8
B10: anti-NKG2D antibody clone 014 (antibody, V domains shown)
VH: EVQLLESGGGLVQPGGSLRLSCAASGFTFSSYAMSWVRQAPGKGLEWVSRISDGGGTIYYTDSVKGRFTIARDNSKNTLYLEMKSLRAEDTAVYYCAKHRLYDSIGAYAMDVWGQGTTVAVSS
VL: DIQMTQSPSSLSASVGDRVTITCRASQSISSYLNWYQQKPGKAPKLLIYDASNLETGVPSRFSGSGSGTDFTLTISSLQPEDFATYYCQQANSFPLTFGPGTKVDIK
notes: From transgenic rabbits

Molecular target: T1, hu N(A2B2)A-avi-His (human)
T1 construct: Construct containing the A2 domain of human CEA, with avi and His tags; also called human CEA (A2 domain)
T1 chain: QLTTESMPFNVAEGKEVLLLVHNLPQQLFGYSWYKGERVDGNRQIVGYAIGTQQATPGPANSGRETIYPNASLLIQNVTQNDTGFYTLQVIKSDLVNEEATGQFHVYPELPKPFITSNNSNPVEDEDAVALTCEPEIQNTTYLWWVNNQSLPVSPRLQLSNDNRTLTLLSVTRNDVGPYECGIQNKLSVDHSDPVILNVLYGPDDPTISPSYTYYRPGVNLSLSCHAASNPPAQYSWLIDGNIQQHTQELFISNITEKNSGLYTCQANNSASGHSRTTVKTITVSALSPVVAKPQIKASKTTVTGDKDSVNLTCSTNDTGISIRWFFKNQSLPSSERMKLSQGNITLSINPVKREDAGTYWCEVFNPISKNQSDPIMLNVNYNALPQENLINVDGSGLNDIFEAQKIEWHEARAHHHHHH
Experiment: SPR Biacore T200; antigen captured via anti-His, bispecific analyte
Description: (§1) On a CM5 chip, an anti-penta-His capture antibody (Qiagen Penta-His Antibody, BSA-free; #34660) was immobilized by standard amine coupling on flow cells 2 and 3 at approximately 12′000 RU. […] Regeneration at the level of the anti-H6 tag capture antibody was achieved by 2 pulses of 10 mM glycine/HCl pH 2.0 for 60 s. Data were double-referenced against the unimmobilized flow cell 1 and a zero concentration of the analyte. The sensorgrams of the analytes were fitted to a simple 1:1 Langmuir interaction model.

Binder	Kd [µM]
B1	0.00334
B2	0.00377
B3	0.00323
B4	0.00366
B5	0.00513
B6	0.00384
B7	0.00255

Molecular target: T2, his avi huNKG2D ECD (human, biotinylated at the avi-tag (in the ELISA))
T2 construct: Human NKG2D ECD with N-terminal H6-avi tags, forms non-covalent dimers; also called recombinant human NKG2D
T2 chain: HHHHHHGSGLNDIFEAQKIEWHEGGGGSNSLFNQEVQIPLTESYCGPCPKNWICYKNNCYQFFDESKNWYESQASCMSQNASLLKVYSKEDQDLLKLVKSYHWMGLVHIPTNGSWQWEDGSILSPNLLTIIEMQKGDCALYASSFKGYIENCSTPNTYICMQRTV
Experiment: as above
Description: as §1

Binder	Kd [µM]
B1	0.0105
B2	0.0229
B3	0.0463
B4	0.0186
B5	0.0172
B6	0.0374
B7	0.0145

Molecular target: T3, mono huNKG2D ECD Fc kh avi (human, UniProt P0DOX5 223-449 = IgG part, biotinylated at the avi-tag)
T3 construct: Monovalent human NKG2D ECD fused to the C-terminus of an avi-tagged human IgG1 Fc knob chain, paired with an empty Fc hole chain
Experiment: SPR ProteOn; antigen on NLC chip, Fab analyte
Description: (§2) This incubation step was repeated once with 25 ml of a 5 mM MgSO₄ solution. The supernatants of both incubation steps were pooled, filtered and loaded on an IMAC column (His[…]™, GE Healthcare). Subsequently, the column was washed with 40 ml washing buffer (500 mM NaCl, 20 mM imidazole, 20 mM NaH2PO₄ pH 7.4). After the elution (500 mM NaCl, 500 mM imidazole, 20 mM NaH₂PO₄ pH 7.4) the eluate was re-buffered using PD10 columns (GE Healthcare).
(§3) Immobilization of recombinant antigens (ligand): Antigens were diluted with PBST (10 mM phosphate, 150 mM sodium chloride pH 7.4, 0.005% TWEEN® (polysorbate) 20) to 10 μg/ml, then injected at 30 μl/minute at varying contact times in vertical orientation for immobilization. […] Buffer (PBST) was injected along the sixth channel to provide an “in-line” blank for referencing. Association rate constants (kₒₙ) and dissociation rate constants (koff) were calculated using a simple one-to-one Langmuir binding model in PROTEON™ Manager v3.1 software by simultaneously fitting the association and dissociation sensorgrams. The equilibrium dissociation constant (KD) was calculated as the ratio koff/kₒₙ. Cross-reactivity of clones 5C5 and 13C6 to cynomolgus NKG2D, i.e. binding to di cyNKG2D ECD Fc avi, was assessed on IgG level (see Example 9).

Binder	Kd [µM]	koff [s⁻¹]	kon [M⁻¹ s⁻¹]
B8	0.079	0.00096	12000
B9	0.015	0.0055	360000

Molecular target: T4, di huNKG2D ECD Fc avi (human, biotinylated at the avi-tag)
T4 construct: Dimeric fusion of human NKG2D ECD to the C-terminus of an avi-tagged human IgG1 Fc
Experiment: SPR ProteOn; antigen on NLC chip, Fab analyte
Description: as §2, §3

Binder	Kd [µM]	koff [s⁻¹]	kon [M⁻¹ s⁻¹]
B8	0.074	0.0007	9500
B9	0.022	0.0056	250000

Molecular target: T5, human NKG2D expressed on cells (human, UniProt P26718 1-216)
T5 construct: the cell type is named under assay; also called NKG2D on NK92 cells; HEK293T human NKG2D
T5 chain: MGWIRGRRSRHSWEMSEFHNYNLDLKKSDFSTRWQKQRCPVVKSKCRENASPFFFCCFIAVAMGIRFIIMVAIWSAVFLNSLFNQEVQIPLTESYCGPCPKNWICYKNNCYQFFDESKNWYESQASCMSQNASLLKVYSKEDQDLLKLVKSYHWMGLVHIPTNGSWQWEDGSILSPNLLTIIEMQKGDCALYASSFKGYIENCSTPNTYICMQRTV
Experiment: flow cytometry; NK92 cells

Binder	EC50 [µM]
B1	0.00847
B2	0.0196
B3	0.0683
B4	0.0149
B5	0.0131
B6	0.0355
B7	0.0176

Molecular target: T6, di muNKG2D ECD Fc avi (murine, biotinylated at the avi-tag)
T6 construct: Dimeric fusion of murine NKG2D ECD to the C-terminus of an avi-tagged human IgG1 Fc; also called recombinant murine NKG2D
Experiment: ELISA; biotinylated antigen on streptavidin plate
Description: Nunc streptavidin coated plates (MicroCoat, #11974998001) were coated with 25 μl/well biotinylated his avi huNKG2D ECD (SEQ ID NO: 93) at a concentration of 0.5 μg/ml and incubated at room temperature (RT) for 1 hour. After washing with 3×90 μl/well PBST-buffer (10×PBS, Roche #11666789001+0.1% TWEEN® (polysorbate) 20), 25 μl anti-NKG2D antibodies were added in 1:3 dilutions starting at a concentration of 3 μg/ml or alternatively with a 1:30 dilution of the original sample and incubated 1 h at RT. After washing (3×90 μl/well PBST-buffer), 25 μl/well anti hu kappa chain HRP (horseradish peroxidase)-conjugate (Millipore, #AP502P, 1:2000) was added and incubated at RT for 1 h. After washing (3×90 μl/well PBST-buffer) 25 μl/well TMB (3,3′,5,5′-tetramethylbenzidine) substrate (Roche, #11835033001) was added.
Nunc streptavidin coated plates (MicroCoat, #11974998001) were coated with 25 μl/well biotinylated di muNKG2D ECD Fc avi (SEQ ID NO: 98) at a concentration of 1 μg/ml and incubated at room temperature (RT) for 1 hour. The assay was performed as described above for human NKG2D.

T6 sequence (chain, as listed by the source limits assumed): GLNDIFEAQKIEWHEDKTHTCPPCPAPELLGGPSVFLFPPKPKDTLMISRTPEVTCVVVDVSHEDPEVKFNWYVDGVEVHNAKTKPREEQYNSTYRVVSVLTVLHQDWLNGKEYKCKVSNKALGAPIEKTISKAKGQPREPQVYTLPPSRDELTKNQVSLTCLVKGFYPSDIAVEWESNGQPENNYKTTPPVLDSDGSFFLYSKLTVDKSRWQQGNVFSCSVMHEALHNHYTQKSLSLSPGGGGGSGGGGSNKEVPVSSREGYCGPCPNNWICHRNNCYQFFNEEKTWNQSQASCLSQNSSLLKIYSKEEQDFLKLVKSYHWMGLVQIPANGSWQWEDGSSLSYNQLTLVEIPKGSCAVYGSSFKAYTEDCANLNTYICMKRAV

Binder	OD max [OD]
B10	0.1

Source: US20240067734A1 (Hoffmann-La Roche, published 2024)
